According to article PMC9482650, “Quantitative fragmentomics allow affinity mapping of interactomes” (Nature Communications, 2022):
Positions count from the first letter of the chain named.

target: CASK, O14936; experiment: holdup assay; parameters: key: below the threshold = too weak to quantify, mostly under pKd 3.1 to 4; conditions: plain residues with an end cap or a label only (N-terminal biotin on a linker: ado-ado)
Sequence (O14936 487-570): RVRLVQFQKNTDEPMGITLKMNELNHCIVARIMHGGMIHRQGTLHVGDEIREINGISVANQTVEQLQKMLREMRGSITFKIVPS

| Binder | pKd |
| --- | --- |
| PASAKGPLGV [CLDN19, Q8N6F1] | below the threshold |
| DQPLEKSTKL [AKAP10, O43572] | below the threshold |

target: ARHGEF12, Q9NZN5-2; experiment: holdup assay; parameters: key: below the threshold = too weak to quantify, mostly under pKd 3.1 to 4; conditions: plain residues with an end cap or a label only (N-terminal biotin on a linker: ado-ado)
Sequence (Q9NZN5 other isoform, or with tags, fused parts or gaps): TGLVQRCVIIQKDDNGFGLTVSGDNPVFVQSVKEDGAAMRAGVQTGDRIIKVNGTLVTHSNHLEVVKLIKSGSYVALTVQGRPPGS

| Binder | pKd |
| --- | --- |
| PASAKGPLGV [CLDN19, Q8N6F1] | below the threshold |
| DQPLEKSTKL [AKAP10, O43572] | 4.97 |

target: GRID2IP_1, A4D2P6; experiment: holdup assay; parameters: key: below the threshold = too weak to quantify, mostly under pKd 3.1 to 4; conditions: plain residues with an end cap or a label only (N-terminal biotin on a linker: ado-ado)
Sequence (A4D2P6 1-87): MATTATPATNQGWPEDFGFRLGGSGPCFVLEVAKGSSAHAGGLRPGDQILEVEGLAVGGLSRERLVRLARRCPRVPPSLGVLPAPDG

| Binder | pKd |
| --- | --- |
| PASAKGPLGV [CLDN19, Q8N6F1] | below the threshold |
| DQPLEKSTKL [AKAP10, O43572] | below the threshold |

target: DLG1_1, Q12959; experiment: holdup assay; parameters: key: below the threshold = too weak to quantify, mostly under pKd 3.1 to 4; conditions: plain residues with an end cap or a label only (N-terminal biotin on a linker: ado-ado)

| Binder | pKd |
| --- | --- |
| PASAKGPLGV [CLDN19, Q8N6F1] | below the threshold |
| DQPLEKSTKL [AKAP10, O43572] | below the threshold |

target: T1, MPP2, Q14168; experiment: holdup assay; parameters: key: below the threshold = too weak to quantify, mostly under pKd 3.1 to 4; conditions: plain residues with an end cap or a label only (N-terminal biotin on a linker: ado-ado)
T1 sequence (Q14168 180-250, limits assumed, looked up): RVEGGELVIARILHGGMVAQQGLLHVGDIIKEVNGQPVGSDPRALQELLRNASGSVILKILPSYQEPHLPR

| Binder | pKd |
| --- | --- |
| PASAKGPLGV [CLDN19, Q8N6F1] | below the threshold |
| DQPLEKSTKL [AKAP10, O43572] | below the threshold |

target: FRMPD4, Q14CM0; experiment: holdup assay; parameters: key: below the threshold = too weak to quantify, mostly under pKd 3.1 to 4; conditions: plain residues with an end cap or a label only (N-terminal biotin on a linker: ado-ado)
Sequence (Q14CM0 67-160): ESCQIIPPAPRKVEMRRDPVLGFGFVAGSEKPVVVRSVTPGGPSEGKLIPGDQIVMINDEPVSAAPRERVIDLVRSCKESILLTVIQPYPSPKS

| Binder | pKd |
| --- | --- |
| PASAKGPLGV [CLDN19, Q8N6F1] | below the threshold |
| DQPLEKSTKL [AKAP10, O43572] | 4.07 |

target: T2, GRIP1_4, Q9Y3R0; experiment: holdup assay; parameters: key: below the threshold = too weak to quantify, mostly under pKd 3.1 to 4; conditions: plain residues with an end cap or a label only (N-terminal biotin on a linker: ado-ado)
T2 sequence (Q9Y3R0 467-571, limits assumed, looked up): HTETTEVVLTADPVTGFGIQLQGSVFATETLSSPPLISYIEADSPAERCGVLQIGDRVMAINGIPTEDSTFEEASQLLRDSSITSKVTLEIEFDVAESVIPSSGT

| Binder | pKd |
| --- | --- |
| PASAKGPLGV [CLDN19, Q8N6F1] | below the threshold |
| DQPLEKSTKL [AKAP10, O43572] | below the threshold |

target: T3, PCLO, Q9Y6V0; experiment: holdup assay; parameters: key: below the threshold = too weak to quantify, mostly under pKd 3.1 to 4; conditions: plain residues with an end cap or a label only (N-terminal biotin on a linker: ado-ado)
T3 sequence (Q9Y6V0 4491-4600, limits assumed, looked up): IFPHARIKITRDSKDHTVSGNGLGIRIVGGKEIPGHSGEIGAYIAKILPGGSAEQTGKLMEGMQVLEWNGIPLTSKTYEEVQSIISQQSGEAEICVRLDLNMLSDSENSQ

| Binder | pKd |
| --- | --- |
| PASAKGPLGV [CLDN19, Q8N6F1] | below the threshold |
| DQPLEKSTKL [AKAP10, O43572] | below the threshold |

target: DLG4_1, P78352; experiment: holdup assay; parameters: key: below the threshold = too weak to quantify, mostly under pKd 3.1 to 4; conditions: plain residues with an end cap or a label only (N-terminal biotin on a linker: ado-ado)
Sequence (P78352 62-152): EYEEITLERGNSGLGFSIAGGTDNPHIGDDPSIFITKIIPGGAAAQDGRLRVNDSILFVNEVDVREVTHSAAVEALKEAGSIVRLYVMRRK

| Binder | pKd |
| --- | --- |
| PASAKGPLGV [CLDN19, Q8N6F1] | below the threshold |
| DQPLEKSTKL [AKAP10, O43572] | below the threshold |

target: MAGI2_4, Q86UL8; experiment: holdup assay; parameters: key: below the threshold = too weak to quantify, mostly under pKd 3.1 to 4; conditions: plain residues with an end cap or a label only (N-terminal biotin on a linker: ado-ado)
Sequence (Q86UL8 772-865): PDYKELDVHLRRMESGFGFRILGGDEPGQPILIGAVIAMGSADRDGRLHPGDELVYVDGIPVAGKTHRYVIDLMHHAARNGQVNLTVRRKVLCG

| Binder | pKd |
| --- | --- |
| PASAKGPLGV [CLDN19, Q8N6F1] | below the threshold |
| DQPLEKSTKL [AKAP10, O43572] | below the threshold |

target: T4, ARHGAP21, Q5T5U3; experiment: holdup assay; parameters: key: below the threshold = too weak to quantify, mostly under pKd 3.1 to 4; conditions: plain residues with an end cap or a label only (N-terminal biotin on a linker: ado-ado)
T4 sequence (Q5T5U3 45-169, limits assumed, looked up): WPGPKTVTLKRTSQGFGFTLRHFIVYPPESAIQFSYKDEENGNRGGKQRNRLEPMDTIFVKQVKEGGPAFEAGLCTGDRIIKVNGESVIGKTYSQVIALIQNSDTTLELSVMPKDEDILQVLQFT

| Binder | pKd |
| --- | --- |
| PASAKGPLGV [CLDN19, Q8N6F1] | 3.98 |
| DQPLEKSTKL [AKAP10, O43572] | below the threshold |

target: LIMK2, P53671; experiment: holdup assay; parameters: key: below the threshold = too weak to quantify, mostly under pKd 3.1 to 4; conditions: plain residues with an end cap or a label only (N-terminal biotin on a linker: ado-ado)
Sequence (P53671 143-248): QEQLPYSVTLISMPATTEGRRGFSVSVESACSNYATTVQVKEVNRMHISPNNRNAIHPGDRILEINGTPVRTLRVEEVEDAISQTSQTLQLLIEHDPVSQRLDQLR

| Binder | pKd |
| --- | --- |
| PASAKGPLGV [CLDN19, Q8N6F1] | below the threshold |
| DQPLEKSTKL [AKAP10, O43572] | below the threshold |

target: DLG2_2, Q15700; experiment: holdup assay; parameters: key: below the threshold = too weak to quantify, mostly under pKd 3.1 to 4; conditions: plain residues with an end cap or a label only (N-terminal biotin on a linker: ado-ado)
Sequence (Q15700 189-283): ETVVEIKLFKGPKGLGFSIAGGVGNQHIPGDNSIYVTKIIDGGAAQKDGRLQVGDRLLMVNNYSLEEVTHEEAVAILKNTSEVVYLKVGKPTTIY

| Binder | pKd |
| --- | --- |
| PASAKGPLGV [CLDN19, Q8N6F1] | below the threshold |
| DQPLEKSTKL [AKAP10, O43572] | below the threshold |

target: FRMPD2_1, Q68DX3; experiment: holdup assay; parameters: key: below the threshold = too weak to quantify, mostly under pKd 3.1 to 4; conditions: plain residues with an end cap or a label only (N-terminal biotin on a linker: ado-ado)
Sequence (Q68DX3 770-861): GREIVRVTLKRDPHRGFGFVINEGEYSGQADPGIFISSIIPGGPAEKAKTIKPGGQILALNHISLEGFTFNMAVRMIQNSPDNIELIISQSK

| Binder | pKd |
| --- | --- |
| PASAKGPLGV [CLDN19, Q8N6F1] | below the threshold |
| DQPLEKSTKL [AKAP10, O43572] | below the threshold |

target: MAGI2_6, Q86UL8; experiment: holdup assay; parameters: key: below the threshold = too weak to quantify, mostly under pKd 3.1 to 4; conditions: plain residues with an end cap or a label only (N-terminal biotin on a linker: ado-ado)
Sequence (Q86UL8 1141-1229): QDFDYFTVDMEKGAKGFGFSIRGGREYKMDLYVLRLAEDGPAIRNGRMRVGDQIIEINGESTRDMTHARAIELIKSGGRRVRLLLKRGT

| Binder | pKd |
| --- | --- |
| PASAKGPLGV [CLDN19, Q8N6F1] | below the threshold |
| DQPLEKSTKL [AKAP10, O43572] | below the threshold |

target: MAGI3_2, Q5TCQ9; experiment: holdup assay; parameters: key: below the threshold = too weak to quantify, mostly under pKd 3.1 to 4; conditions: plain residues with an end cap or a label only (N-terminal biotin on a linker: ado-ado)
Sequence (Q5TCQ9 398-503): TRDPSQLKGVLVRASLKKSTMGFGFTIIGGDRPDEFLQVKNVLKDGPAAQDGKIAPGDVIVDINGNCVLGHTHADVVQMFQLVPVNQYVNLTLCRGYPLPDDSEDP

| Binder | pKd |
| --- | --- |
| PASAKGPLGV [CLDN19, Q8N6F1] | below the threshold |
| DQPLEKSTKL [AKAP10, O43572] | below the threshold |

target: T5, NHERF3_3, Q5T2W1; experiment: holdup assay; parameters: key: below the threshold = too weak to quantify, mostly under pKd 3.1 to 4; conditions: plain residues with an end cap or a label only (N-terminal biotin on a linker: ado-ado)
T5 sequence (Q5T2W1 238-333, limits assumed, looked up): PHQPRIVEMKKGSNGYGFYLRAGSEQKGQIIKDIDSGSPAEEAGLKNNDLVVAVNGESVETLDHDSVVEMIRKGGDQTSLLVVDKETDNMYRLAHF

| Binder | pKd |
| --- | --- |
| PASAKGPLGV [CLDN19, Q8N6F1] | below the threshold |
| DQPLEKSTKL [AKAP10, O43572] | 4.79 |

target: T6, APBA1_2, Q02410; experiment: holdup assay; parameters: key: below the threshold = too weak to quantify, mostly under pKd 3.1 to 4; conditions: plain residues with an end cap or a label only (N-terminal biotin on a linker: ado-ado)
T6 sequence (Q02410 742-832, limits assumed, looked up): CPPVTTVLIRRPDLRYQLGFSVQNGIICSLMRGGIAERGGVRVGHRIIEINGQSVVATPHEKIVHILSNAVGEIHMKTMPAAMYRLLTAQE

| Binder | pKd |
| --- | --- |
| PASAKGPLGV [CLDN19, Q8N6F1] | below the threshold |
| DQPLEKSTKL [AKAP10, O43572] | below the threshold |

target: PDLIM1, O00151; experiment: holdup assay; parameters: key: below the threshold = too weak to quantify, mostly under pKd 3.1 to 4; conditions: plain residues with an end cap or a label only (N-terminal biotin on a linker: ado-ado)
Sequence (O00151 1-87): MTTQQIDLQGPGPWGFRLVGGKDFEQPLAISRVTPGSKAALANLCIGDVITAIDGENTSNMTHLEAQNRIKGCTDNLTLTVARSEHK

| Binder | pKd |
| --- | --- |
| PASAKGPLGV [CLDN19, Q8N6F1] | below the threshold |
| DQPLEKSTKL [AKAP10, O43572] | below the threshold |

target: NHERF2_2, Q15599; experiment: holdup assay; parameters: key: below the threshold = too weak to quantify, mostly under pKd 3.1 to 4; conditions: plain residues with an end cap or a label only (N-terminal biotin on a linker: ado-ado)
Sequence (Q15599 142-238): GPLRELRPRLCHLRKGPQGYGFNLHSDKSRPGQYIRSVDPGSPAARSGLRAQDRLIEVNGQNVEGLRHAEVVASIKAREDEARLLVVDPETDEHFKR

| Binder | pKd |
| --- | --- |
| PASAKGPLGV [CLDN19, Q8N6F1] | below the threshold |
| DQPLEKSTKL [AKAP10, O43572] | 5.02 |

target: IL16_4, Q14005; experiment: holdup assay; parameters: key: below the threshold = too weak to quantify, mostly under pKd 3.1 to 4; conditions: plain residues with an end cap or a label only (N-terminal biotin on a linker: ado-ado)
Sequence (Q14005 1229-1329): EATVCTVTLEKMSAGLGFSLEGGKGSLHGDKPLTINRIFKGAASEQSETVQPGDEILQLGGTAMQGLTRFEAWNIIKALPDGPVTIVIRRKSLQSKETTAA

| Binder | pKd |
| --- | --- |
| PASAKGPLGV [CLDN19, Q8N6F1] | 3.55 |
| DQPLEKSTKL [AKAP10, O43572] | below the threshold |

target: GORASP2, Q9H8Y8; experiment: holdup assay; parameters: key: below the threshold = too weak to quantify, mostly under pKd 3.1 to 4; conditions: plain residues with an end cap or a label only (N-terminal biotin on a linker: ado-ado)

| Binder | pKd |
| --- | --- |
| PASAKGPLGV [CLDN19, Q8N6F1] | below the threshold |
| DQPLEKSTKL [AKAP10, O43572] | below the threshold |

target: T7, MPP6, Q9NZW5; experiment: holdup assay; parameters: key: below the threshold = too weak to quantify, mostly under pKd 3.1 to 4; conditions: plain residues with an end cap or a label only (N-terminal biotin on a linker: ado-ado)
T7 sequence (Q9NZW5 125-219, limits assumed, looked up): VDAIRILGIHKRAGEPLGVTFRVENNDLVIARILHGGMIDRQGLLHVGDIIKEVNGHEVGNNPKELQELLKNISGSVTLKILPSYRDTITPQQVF

| Binder | pKd |
| --- | --- |
| PASAKGPLGV [CLDN19, Q8N6F1] | below the threshold |
| DQPLEKSTKL [AKAP10, O43572] | below the threshold |

target: T8, SNTA1, Q13424; experiment: holdup assay; parameters: key: below the threshold = too weak to quantify, mostly under pKd 3.1 to 4; conditions: plain residues with an end cap or a label only (N-terminal biotin on a linker: ado-ado)
T8 sequence (Q13424 82-180, limits assumed, looked up): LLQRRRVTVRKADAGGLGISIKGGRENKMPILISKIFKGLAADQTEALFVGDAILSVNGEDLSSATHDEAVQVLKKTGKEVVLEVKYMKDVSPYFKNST

| Binder | pKd |
| --- | --- |
| PASAKGPLGV [CLDN19, Q8N6F1] | below the threshold |
| DQPLEKSTKL [AKAP10, O43572] | 3.71 |

target: GRIP2_3, Q9C0E4; experiment: holdup assay; parameters: key: below the threshold = too weak to quantify, mostly under pKd 3.1 to 4; conditions: plain residues with an end cap or a label only (N-terminal biotin on a linker: ado-ado)
Sequence (Q9C0E4 238-339): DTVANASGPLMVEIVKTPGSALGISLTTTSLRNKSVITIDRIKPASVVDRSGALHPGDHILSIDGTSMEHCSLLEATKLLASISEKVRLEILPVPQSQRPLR

| Binder | pKd |
| --- | --- |
| PASAKGPLGV [CLDN19, Q8N6F1] | below the threshold |
| DQPLEKSTKL [AKAP10, O43572] | below the threshold |

target: T9, APBA2_2, Q99767; experiment: holdup assay; parameters: key: below the threshold = too weak to quantify, mostly under pKd 3.1 to 4; conditions: plain residues with an end cap or a label only (N-terminal biotin on a linker: ado-ado)
T9 sequence (Q99767 654-744, limits assumed, looked up): T6 sequence (Q02410 742-832, limits assumed, looked up) with R10K, R15K, P59A, H65Q, I66A, A70S, Y84F, A89G

| Binder | pKd |
| --- | --- |
| PASAKGPLGV [CLDN19, Q8N6F1] | below the threshold |
| DQPLEKSTKL [AKAP10, O43572] | below the threshold |

target: TJP2_1, Q9UDY2; experiment: holdup assay; parameters: key: below the threshold = too weak to quantify, mostly under pKd 3.1 to 4; conditions: plain residues with an end cap or a label only (N-terminal biotin on a linker: ado-ado)
Sequence (Q9UDY2 24-128): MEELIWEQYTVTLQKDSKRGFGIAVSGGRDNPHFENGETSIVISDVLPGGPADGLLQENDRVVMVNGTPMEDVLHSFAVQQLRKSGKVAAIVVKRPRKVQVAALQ

| Binder | pKd |
| --- | --- |
| PASAKGPLGV [CLDN19, Q8N6F1] | below the threshold |
| DQPLEKSTKL [AKAP10, O43572] | below the threshold |

target: Inadl_2, Q8NI35; experiment: holdup assay; parameters: key: below the threshold = too weak to quantify, mostly under pKd 3.1 to 4; conditions: plain residues with an end cap or a label only (N-terminal biotin on a linker: ado-ado)
Sequence (Q8NI35 238-335): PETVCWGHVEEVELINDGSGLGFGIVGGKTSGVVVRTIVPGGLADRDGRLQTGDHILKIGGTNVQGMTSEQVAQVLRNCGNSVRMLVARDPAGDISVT

| Binder | pKd |
| --- | --- |
| PASAKGPLGV [CLDN19, Q8N6F1] | below the threshold |
| DQPLEKSTKL [AKAP10, O43572] | below the threshold |
